Source: patent US20070027096, “Aptamers to human epidermal growth factor receptor-3” (published 2007)

Columns and labels:
[1] = molecular target: T1, HER3 extracellular domain (HER3ECD, ErbB3) (Homo sapiens, UniProt P21860 SEQ:20-643); test: EMSA; 8 pmol RNA with 24 pmol HER3ECD, 37 C; conditions: tags: C-terminal V5 and hexa-His (pMT/BiP/V5-His A, S2 insect cells); chain copies: oligomeric (self-associated; stated); label: internal 32P
Description: (§1) For screening purposes, 8 pmol of internally labeled aptamer were incubated in binding buffer with 24 pmol of HER3ECD at 37° C. for 10 minutes and analyzed on 6% non-denaturing polyacrylamide gels as described above. Aptamers displaying substantial shift were reverse transcribed and sequenced. For subsequent analysis of A30 binding, internally labeled and unlabeled A30 was denatured at 90° C. for 2 min in PBS and cooled on ice for 1 min. A30 was incubated with HER3ECD in binding buffer for 10 min at 37° C. at the indicated concentrations and in the presence 0.5 μM tRNA and was analyzed by electrophoresis on a non-denaturing 6% polyacrylamide gel at 4° C. Were indicated, HER3ECD and heregulin were premixed at room temperature three minutes before the addition of A30.

[2] = molecular target: T2, HER3 on MCF7 cells (with endogenous HER2) (Homo sapiens, UniProt P21860 SEQ:20-1342); test: competition; low affinity site on MCF7 cells, 4 C, PBS, +/-2.2, Scatchard; conditions: label: internal 32P; triple hairpin loop
T2 sequence (P21860 20-1342 E560G/E1064G): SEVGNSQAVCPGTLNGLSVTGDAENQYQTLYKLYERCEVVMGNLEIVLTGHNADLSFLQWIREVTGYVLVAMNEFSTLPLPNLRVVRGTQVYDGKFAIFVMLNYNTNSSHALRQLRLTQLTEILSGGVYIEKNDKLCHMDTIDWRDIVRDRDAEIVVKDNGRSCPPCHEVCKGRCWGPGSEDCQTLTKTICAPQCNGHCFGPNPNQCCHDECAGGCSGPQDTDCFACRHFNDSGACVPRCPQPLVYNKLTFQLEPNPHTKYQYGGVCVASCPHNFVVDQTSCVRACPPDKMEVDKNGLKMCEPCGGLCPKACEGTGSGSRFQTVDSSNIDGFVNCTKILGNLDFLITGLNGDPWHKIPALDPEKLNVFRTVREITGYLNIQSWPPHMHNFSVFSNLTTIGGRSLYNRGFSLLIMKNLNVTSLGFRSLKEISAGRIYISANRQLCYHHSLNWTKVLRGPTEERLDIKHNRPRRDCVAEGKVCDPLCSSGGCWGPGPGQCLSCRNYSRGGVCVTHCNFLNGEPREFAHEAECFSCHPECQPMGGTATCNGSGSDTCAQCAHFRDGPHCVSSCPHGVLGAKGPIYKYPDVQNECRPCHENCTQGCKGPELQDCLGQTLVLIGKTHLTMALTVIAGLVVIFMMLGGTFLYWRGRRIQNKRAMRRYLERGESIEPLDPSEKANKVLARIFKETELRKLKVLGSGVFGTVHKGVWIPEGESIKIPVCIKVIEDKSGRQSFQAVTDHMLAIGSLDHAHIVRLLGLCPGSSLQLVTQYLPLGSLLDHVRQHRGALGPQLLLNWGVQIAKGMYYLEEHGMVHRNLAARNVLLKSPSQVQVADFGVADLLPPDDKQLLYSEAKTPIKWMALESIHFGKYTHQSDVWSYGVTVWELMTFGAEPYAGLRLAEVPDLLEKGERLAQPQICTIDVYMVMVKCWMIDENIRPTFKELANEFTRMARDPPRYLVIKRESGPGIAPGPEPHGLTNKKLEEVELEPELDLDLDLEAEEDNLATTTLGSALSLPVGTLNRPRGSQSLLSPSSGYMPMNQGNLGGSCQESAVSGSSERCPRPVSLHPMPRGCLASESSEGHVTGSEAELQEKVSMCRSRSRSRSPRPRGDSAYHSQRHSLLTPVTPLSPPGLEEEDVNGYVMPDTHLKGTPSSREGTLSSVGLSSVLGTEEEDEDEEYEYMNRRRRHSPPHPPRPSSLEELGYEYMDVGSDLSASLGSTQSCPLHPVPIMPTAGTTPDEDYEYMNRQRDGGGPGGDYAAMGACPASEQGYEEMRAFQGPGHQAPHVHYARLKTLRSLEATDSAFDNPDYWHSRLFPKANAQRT
Description: (§2) MCF7 cells (ATCC) were grown to 70% confluency on 6 well plates and washed with ice cold PBS. Following the washes, cells were incubated at 4° C. with 1 mL ice cold PBS or PBS containing 200 nM heregulin. After four hours an equal volume of ice cold PBS containing two microliter internally ³²P labeled A30 aptamer (80,000 cpm/μL), 20 μL RNAse inhibitor (20 units/μL), and varying concentrations of unlabeled aptamer were added. After four hours incubation, the supernatant was removed, and cells were washed three times with ice cold PBS. Displaced and bound radiolabeled aptamer was measured in duplicate.
(§3) Several lines of evidence provide evidence that the interaction of A30 with HER3ECD involves at least two different modes of binding. […] Addition of heregulin has two consequences. […] With respect to the heregulin-induced increase and dual mode of binding, we observed a similar, although less pronounced, effect for A30 binding to MCF7 cells (FIG. 4B+C). MCF7 cells endogenously express both HER3 and HER2. […] The addition of heregulin results in an increase in the number of A30 binding sites FIG. 4B), but this increase is relatively small (25% total 17% for low affinity and 8% for high affinity sites).

[3] = molecular target: T2, HER3 on MCF7 cells (with endogenous …); test: cell_activity; half-maximal inhibition of heregulin-specific MCF7 growth; maximum 50% inhibition; conditions: label: internal 32P; triple hairpin loop
Description: MCF7 cells were seeded in 96 well plates (2500 cells/well) in RPMI, 2% fetal bovine serum, 2 units of RNAse inhibitor/ml and varying concentrations of heregulin and aptamer. After two days, cell growth was determined using an MTT/tetrazolium based assay (Promega). Cell growth was equated with the absorbance of converted and solubilized dye at 560 nm. All samples were determined in triplicate.
Next, we evaluated the ability of A30 to interfere with receptor activation by wild type heregulin. […] In contrast, the activation of HER2 by EGF, which proceeds through hetetodimers of EGFR and HER2, is not inhibited by A30 (FIG. 7b). The low intensity of tyrosine phosphorylation of HER2 after stimulation by EGF is a reflection of the lower levels of EGFR (5000/cell) compared to HER2 (15,000) and HER3 (25,000) (see, e.g. Aguilar et al. (1999) Oncogene 18, 6050-62) and the fact that EGFR signaling proceeds only in part through heterodimers with HER2. To evaluate if the inhibition of tyrosine phosphorylation is reflected in a reduction in heregulin-specific growth stimulation, we incubated MCF7 cells in the presence of different concentrations of A30 and heregulin for two days (FIG. 8). […] Half-maximal inhibition occurs at around 1 nM A30. The addition of A30 alone has little effect on the growth of MCF7 cells.

[4] = molecular target: T2, HER3 on MCF7 cells (with endogenous …); test: competition; high affinity site on MCF7 cells, 4 C, PBS, +/-0.2, Scatchard; conditions: label: internal 32P; triple hairpin loop
Description: as §2, §3

[5] = molecular target: T1, HER3 extracellular domain (HER3ECD, …); test: EMSA; apparent Kd by displacement with unlabeled A30; no heregulin; 10 mM HEPES pH 7.4, 100 mM NaCl, 2.5 mM MgCl2, 37 C, 0.5 uM tRNA; conditions: tags: C-terminal V5 and hexa-His (pMT/BiP/V5-His A, S2 insect cells); chain copies: oligomeric (self-associated; stated); label: internal 32P; triple hairpin loop
Description: as §1, §3

[6] = molecular target: T3, heregulin (Homo sapiens); test: EMSA; 0.5 uM protein; conditions: label: internal 32P; triple hairpin loop
T3 chain: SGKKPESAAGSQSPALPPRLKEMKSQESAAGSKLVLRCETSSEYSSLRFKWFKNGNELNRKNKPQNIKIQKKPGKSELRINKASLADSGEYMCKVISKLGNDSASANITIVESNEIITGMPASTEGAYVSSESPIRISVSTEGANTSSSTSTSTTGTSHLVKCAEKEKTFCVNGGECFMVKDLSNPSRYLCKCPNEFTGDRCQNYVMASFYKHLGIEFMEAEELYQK

[7] = molecular target: HER2 extracellular domain (HER2-ECD) (Homo sapiens, UniProt P04626 SEQ:23-652); test: EMSA; 0.5 uM protein; conditions: label: internal 32P; triple hairpin loop
[8] = molecular target: T1, HER3 extracellular domain (HER3ECD, …); test: EMSA; 8 pmol RNA with 24 pmol HER3ECD, 37 C; A18 and A30 do not displace each other; conditions: tags: C-terminal V5 and hexa-His (pMT/BiP/V5-His A, S2 insect cells); chain copies: oligomeric (self-associated; stated); label: internal 32P
Description: as §1

T1 sequence (P21860 20-643 E560G): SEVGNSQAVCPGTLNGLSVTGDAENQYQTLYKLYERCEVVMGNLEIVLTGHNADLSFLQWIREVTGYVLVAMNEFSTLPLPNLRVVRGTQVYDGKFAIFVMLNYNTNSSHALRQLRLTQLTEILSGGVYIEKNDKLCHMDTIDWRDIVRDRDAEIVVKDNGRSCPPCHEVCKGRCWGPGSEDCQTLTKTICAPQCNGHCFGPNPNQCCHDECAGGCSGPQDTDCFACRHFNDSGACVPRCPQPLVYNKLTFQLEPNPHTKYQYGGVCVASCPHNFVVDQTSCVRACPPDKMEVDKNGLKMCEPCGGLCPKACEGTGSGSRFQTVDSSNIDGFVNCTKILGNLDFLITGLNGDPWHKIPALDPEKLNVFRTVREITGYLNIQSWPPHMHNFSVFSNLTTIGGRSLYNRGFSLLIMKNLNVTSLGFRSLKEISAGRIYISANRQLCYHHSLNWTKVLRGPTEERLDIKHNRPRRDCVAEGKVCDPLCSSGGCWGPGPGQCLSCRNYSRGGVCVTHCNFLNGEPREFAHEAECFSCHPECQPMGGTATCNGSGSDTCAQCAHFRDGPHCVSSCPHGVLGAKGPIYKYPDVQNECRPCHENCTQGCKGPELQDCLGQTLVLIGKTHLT

B1: A6 (ssRNA)
RNA: GGGAAUUCCGCGUGUGCAGAACAAUCGCAUAGGCCGCAAGGUUAGUUUCGUUGUCCGCCCGGUGCAGUCCGUUCGGGAUCCUC
B1: binds [1].

B2: A37 (ssRNA)
RNA: GGGAAUUCCGCGUGUGCUUGAGAGGUCGUGCCAACUCUCAAGGUUGUCUUUGCUCUCCGCUCUGUGGUCCGUUCGGGAUCCUC
B2: binds [1].

B3: A30 (ssRNA)
RNA: GGGAAUUCCGCGUGUGCCAGCGAAAGUUGCGUAUGGGUCACAUCGCAGGCACAUGUCAUCUGGGCGGUCCGUUCGGGAUCCUC
B3 gave a Kd [2] of 21 nM, an IC50 [3] of ~1 nM and a Kd [4] of 3.3 nM. For the same binder, the Kd [5] was 45 nM, the binding result [6] was “no binding” and the binding result [7] was “no binding”.

B4: A23 (ssRNA)
RNA: GGGAAUUCCGCGUGUGCGAGGGGCGAGGACGCCGAGUAUAGCCCCUAGAGGUGGAUGUUUCACGGUGUCCGUUCGGGAUCCUC
B4: binds [1].

B5: A19 (ssRNA)
RNA: GGGAAUUCCGCGUGUGCAGAUCAGGACAGAGCGCACAGGUGCCAUCCUGGUCUAACGCCCUCGAUGGUCCGUUCGGGAUCCUC
B5: binds [1].

B6: A18 (ssRNA)
RNA: GGGAAUUCCGCGUGUGCACGAGUAUAGCCCACAUGGCACGACAGGGACGUUUCAUGUGCACAGUUGGUCCGUUCGGGAUCCUC
B6: binds [8].
